# The RNAGym collection of RNA variant scans (doi:10.7554/elife.80360)
# B1: HDV Ribozyme (parent)
# chain: GGCCGGCAUGGUCCCAGCCUCCUCGCUGGCGCCGGCUGGGCAACAUUCCGAGGGGACCGUCCCCUCGGUAAUGGCGAAUGGGACCCA
# Variants of: B1
# Test: self-cleavage, relative activity (ratio to wild type); higher = more cleavage; co-transcriptional
row,Variant,self-cleavage
1,GGCCGGCAUGGUCACAGCCUCCUCGCUGGCGCCGGCUGGGCAACAUUCCGAGGGGACCGUCCCCUCGGUAAUGGUGAAUGGGACCCA [C14A C75U],0
2,GGCCGGCAUGGUCACAGCCUCCUCGCUGGCGCCGGCUGGGCAACAUUCCGAGGGGACCGUCCCCUCGGUAAUGGCGAAUGGGACACA [C14A C85A],0.623
3,GGCCGGCAUGGUCACAGCCUCCUCGCUGGCGCCGGCUGGGCAACAUUCCGAGGGGACCGUCCCCUCGGUAAUGGCGAAUGGGACCGA [C14A C86G],0.378
4,GGCCGGCAUGGUCACAGCCUCCUCGCUGGCGCCGGCUGGGCAACAUUCCGAGGGGACCGUCCCCUCGGUAAUGGCGAAUGGGACCUA [C14A C86U],0.9
5,GGCCGGCAUGGUCACAUCCUCCUCGCUGGCGCCGGCUGGGCAACAUUCCGAGGGGACCGUCCCCUCGGUAAUGGCGAAUGGGACCCA [C14A G17U],0.199
6,GGCCGGCAUGGUCACAGCCUCCUCCCUGGCGCCGGCUGGGCAACAUUCCGAGGGGACCGUCCCCUCGGUAAUGGCGAAUGGGACCCA [C14A G25C],0.201
7,GGCCGGCAUGGUCACAGCCUCCUCUCUGGCGCCGGCUGGGCAACAUUCCGAGGGGACCGUCCCCUCGGUAAUGGCGAAUGGGACCCA [C14A G25U],0.0652
8,GGCCGGCAUGGUCACAGCCUCCUCGCUCGCGCCGGCUGGGCAACAUUCCGAGGGGACCGUCCCCUCGGUAAUGGCGAAUGGGACCCA [C14A G28C],0.142
9,GGCCGGCAUGGUCACAGCCUCCUCGCUGACGCCGGCUGGGCAACAUUCCGAGGGGACCGUCCCCUCGGUAAUGGCGAAUGGGACCCA [C14A G29A],0.115
10,GGCCGGCAUGGUCACAGCCUCCUCGCUGCCGCCGGCUGGGCAACAUUCCGAGGGGACCGUCCCCUCGGUAAUGGCGAAUGGGACCCA [C14A G29C],0.0302
11,GGCCGGCAUGGUCACAGCCUCCUCGCUGGCACCGGCUGGGCAACAUUCCGAGGGGACCGUCCCCUCGGUAAUGGCGAAUGGGACCCA [C14A G31A],0.121
12,GGCCGGCAUGGUCACAGCCUCCUCGCUGGCUCCGGCUGGGCAACAUUCCGAGGGGACCGUCCCCUCGGUAAUGGCGAAUGGGACCCA [C14A G31U],0.148
13,GGCCGGCAUGGUCACAGCCUCCUCGCUGGCGCCCGCUGGGCAACAUUCCGAGGGGACCGUCCCCUCGGUAAUGGCGAAUGGGACCCA [C14A G34C],0.151
14,GGCCGGCAUGGUCACAGCCUCCUCGCUGGCGCCGGCUGCGCAACAUUCCGAGGGGACCGUCCCCUCGGUAAUGGCGAAUGGGACCCA [C14A G39C],0.0615
15,GGCCGGCAUGGUCACAGCCUCCUCGCUGGCGCCGGCUGGGCAACAUUCCAAGGGGACCGUCCCCUCGGUAAUGGCGAAUGGGACCCA [C14A G50A],0.736
16,GGCCGGCAUGGUCACAGCCUCCUCGCUGGCGCCGGCUGGGCAACAUUCCCAGGGGACCGUCCCCUCGGUAAUGGCGAAUGGGACCCA [C14A G50C],0.639
17,GGCCGGCAUGGUCACAGCCUCCUCGCUGGCGCCGGCUGGGCAACAUUCCGACGGGACCGUCCCCUCGGUAAUGGCGAAUGGGACCCA [C14A G52C],0.782
18,GGCCGGCAUGGUCACAGCCUCCUCGCUGGCGCCGGCUGGGCAACAUUCCGAGAGGACCGUCCCCUCGGUAAUGGCGAAUGGGACCCA [C14A G53A],0.499
19,GGCCGGCAUGGUCACAGCCUCCUCGCUGGCGCCGGCUGGGCAACAUUCCGAGUGGACCGUCCCCUCGGUAAUGGCGAAUGGGACCCA [C14A G53U],0.848
20,GGCCGGCAUGGUCACAGCCUCCUCGCUGGCGCCGGCUGGGCAACAUUCCGAGGUGACCGUCCCCUCGGUAAUGGCGAAUGGGACCCA [C14A G54U],0.628
21,GGCCGGCAUGGUCACAGCCUCCUCGCUGGCGCCGGCUGGGCAACAUUCCGAGGGGACCAUCCCCUCGGUAAUGGCGAAUGGGACCCA [C14A G59A],0.762
22,GGCCGGCAUGGUCACAGCCUCCUCGCUGGCGCCGGCUGGGCAACAUUCCGAGGGGACCGUCCCCUCGAUAAUGGCGAAUGGGACCCA [C14A G68A],0.811

row,Variant,self-cleavage
1,GGCCGGCAUGGUCACAGCCUCCUCGCUGGCGCCGGCUGGGCAACAUUCCGAGGGGACCGUCCCCUCGGUAAUGACGAAUGGGACCCA [C14A G74A],0.182
2,GGCCGGCAUGGUCACAGCCUCCUCGCUGGCGCCGGCUGGGCAACAUUCCGAGGGGACCGUCCCCUCGGUAAUGUCGAAUGGGACCCA [C14A G74U],0.281
3,GGCCGGCAUGGUCACAGCCUCCUCGCUGGCGCCGGCUGGGCAACAUUCCGAGGGGACCGUCCCCUCGGUAAUGGCUAAUGGGACCCA [C14A G76U],1.27
4,GGCCGGCAUGGUCACAGCCUCCUCGCUGGCGCCGGCUGGGCAACAUUCCGAGGGGACCGUCCCCUCGGUAAUGGCGAAUGGUACCCA [C14A G82U],0.665
5,GGCCGGCAUGGUCACAGCCACCUCGCUGGCGCCGGCUGGGCAACAUUCCGAGGGGACCGUCCCCUCGGUAAUGGCGAAUGGGACCCA [C14A U20A],0
6,GGCCGGCAUGGUCACAGCCUCCACGCUGGCGCCGGCUGGGCAACAUUCCGAGGGGACCGUCCCCUCGGUAAUGGCGAAUGGGACCCA [C14A U23A],0.575
7,GGCCGGCAUGGUCACAGCCUCCUCGCGGGCGCCGGCUGGGCAACAUUCCGAGGGGACCGUCCCCUCGGUAAUGGCGAAUGGGACCCA [C14A U27G],0.895
8,GGCCGGCAUGGUCACAGCCUCCUCGCUGGCGCCGGCCGGGCAACAUUCCGAGGGGACCGUCCCCUCGGUAAUGGCGAAUGGGACCCA [C14A U37C],0.504
9,GGCCGGCAUGGUCACAGCCUCCUCGCUGGCGCCGGCUGGGCAACAUCCCGAGGGGACCGUCCCCUCGGUAAUGGCGAAUGGGACCCA [C14A U47C],0.415
10,GGCCGGCAUGGUCACAGCCUCCUCGCUGGCGCCGGCUGGGCAACAUGCCGAGGGGACCGUCCCCUCGGUAAUGGCGAAUGGGACCCA [C14A U47G],0.519
11,GGCCGGCAUGGUCACAGCCUCCUCGCUGGCGCCGGCUGGGCAACAUUCCGAGGGGACCGUCCCCACGGUAAUGGCGAAUGGGACCCA [C14A U65A],0.811
12,GGCCGGCAUGGUCACAGCCUCCUCGCUGGCGCCGGCUGGGCAACAUUCCGAGGGGACCGUCCCCUCGGCAAUGGCGAAUGGGACCCA [C14A U69C],0.95
13,GGCCGGCAUGGUCGCAGCCUCCUCGCUGGCGCCGGCUGGGCGACAUUCCGAGGGGACCGUCCCCUCGGUAAUGGCGAAUGGGACCCA [C14G A42G],0
14,GGCCGGCAUGGUCGCAGCCUCCUCGCUGGCGCCGGCUGGGCUACAUUCCGAGGGGACCGUCCCCUCGGUAAUGGCGAAUGGGACCCA [C14G A42U],0.252
15,GGCCGGCAUGGUCGCAGCCUCCUCGCUGGCGCCGGCUGGGCAACAUUCCGUGGGGACCGUCCCCUCGGUAAUGGCGAAUGGGACCCA [C14G A51U],0.791
16,GGCCGGCAUGGUCGCAGCCUCCUCGCUGGCGCCGGCUGGGCAACAUUCCGAGGGGACCGUCCCCUCGGUAAUGGCGAAUGGGACCCG [C14G A87G],0.683
17,GGCCGGCAUGGUCGCAGCCUCUUCGCUGGCGCCGGCUGGGCAACAUUCCGAGGGGACCGUCCCCUCGGUAAUGGCGAAUGGGACCCA [C14G C22U],0.306
18,GGCCGGCAUGGUCGCAGCCUCCUUGCUGGCGCCGGCUGGGCAACAUUCCGAGGGGACCGUCCCCUCGGUAAUGGCGAAUGGGACCCA [C14G C24U],0.403
19,GGCCGGCAUGGUCGCAGCCUCCUCGUUGGCGCCGGCUGGGCAACAUUCCGAGGGGACCGUCCCCUCGGUAAUGGCGAAUGGGACCCA [C14G C26U],1.18
20,GGCCGGCAUGGUCGCAGCCUCCUCGCUGGUGCCGGCUGGGCAACAUUCCGAGGGGACCGUCCCCUCGGUAAUGGCGAAUGGGACCCA [C14G C30U],0.0396
21,GGCCGGCAUGGUCGCAGCCUCCUCGCUGGCGUCGGCUGGGCAACAUUCCGAGGGGACCGUCCCCUCGGUAAUGGCGAAUGGGACCCA [C14G C32U],0.196
22,GGCCGGCAUGGUCGCAGCCUCCUCGCUGGCGCAGGCUGGGCAACAUUCCGAGGGGACCGUCCCCUCGGUAAUGGCGAAUGGGACCCA [C14G C33A],0.151

row,Variant,self-cleavage
1,GGCCGGCAUGGUCGCAGCCUCCUCGCUGGCGCCGGGUGGGCAACAUUCCGAGGGGACCGUCCCCUCGGUAAUGGCGAAUGGGACCCA [C14G C36G],0.237
2,GGCCGGCAUGGUCGCAGCCUCCUCGCUGGCGCCGGCUGGGAAACAUUCCGAGGGGACCGUCCCCUCGGUAAUGGCGAAUGGGACCCA [C14G C41A],0.776
3,GGCCGGCAUGGUCGCAGCCUCCUCGCUGGCGCCGGCUGGGCAAAAUUCCGAGGGGACCGUCCCCUCGGUAAUGGCGAAUGGGACCCA [C14G C44A],0.128
4,GGCCGGCAUGGUCGCAGCCUCCUCGCUGGCGCCGGCUGGGCAACAUUCGGAGGGGACCGUCCCCUCGGUAAUGGCGAAUGGGACCCA [C14G C49G],0.383
5,GGCCGGCAUGGUCGCAGCCUCCUCGCUGGCGCCGGCUGGGCAACAUUCUGAGGGGACCGUCCCCUCGGUAAUGGCGAAUGGGACCCA [C14G C49U],0.529
6,GGCCGGCAUGGUCGCAGCCUCCUCGCUGGCGCCGGCUGGGCAACAUUCCGAGGGGACGGUCCCCUCGGUAAUGGCGAAUGGGACCCA [C14G C58G],0.712
7,GGCCGGCAUGGUCGCAGCCUCCUCGCUGGCGCCGGCUGGGCAACAUUCCGAGGGGACCGUACCCUCGGUAAUGGCGAAUGGGACCCA [C14G C61A],0.88
8,GGCCGGCAUGGUCGCAGCCUCCUCGCUGGCGCCGGCUGGGCAACAUUCCGAGGGGACCGUCACCUCGGUAAUGGCGAAUGGGACCCA [C14G C62A],0.437
9,GGCCGGCAUGGUCGCAGCCUCCUCGCUGGCGCCGGCUGGGCAACAUUCCGAGGGGACCGUCUCCUCGGUAAUGGCGAAUGGGACCCA [C14G C62U],0.554
10,GGCCGGCAUGGUCGCAGCCUCCUCGCUGGCGCCGGCUGGGCAACAUUCCGAGGGGACCGUCCACUCGGUAAUGGCGAAUGGGACCCA [C14G C63A],0.755
11,GGCCGGCAUGGUCGCAGCCUCCUCGCUGGCGCCGGCUGGGCAACAUUCCGAGGGGACCGUCCCCUUGGUAAUGGCGAAUGGGACCCA [C14G C66U],0.831
12,GGCCGGCAUGGUCGCAGCCUCCUCGCUGGCGCCGGCUGGGCAACAUUCCGAGGGGACCGUCCCCUCGGUAAUGGCGAAUGGGAACCA [C14G C84A],0.519
13,GGCCGGCAUGGUCGCAGCCUCCUCGCUGGCGCCGGCUGGGCAACAUUCCGAGGGGACCGUCCCCUCGGUAAUGGCGAAUGGGAGCCA [C14G C84G],0.128
14,GGCCGGCAUGGUCGCAGCCUCCUCGCUGGCGCCGGCUGGGCAACAUUCCGAGGGGACCGUCCCCUCGGUAAUGGCGAAUGGGACUCA [C14G C85U],1.31
15,GGCCGGCAUGGUCGCAACCUCCUCGCUGGCGCCGGCUGGGCAACAUUCCGAGGGGACCGUCCCCUCGGUAAUGGCGAAUGGGACCCA [C14G G17A],0.123
16,GGCCGGCAUGGUCGCAGCCUCCUCGCUAGCGCCGGCUGGGCAACAUUCCGAGGGGACCGUCCCCUCGGUAAUGGCGAAUGGGACCCA [C14G G28A],0.0415
17,GGCCGGCAUGGUCGCAGCCUCCUCGCUGCCGCCGGCUGGGCAACAUUCCGAGGGGACCGUCCCCUCGGUAAUGGCGAAUGGGACCCA [C14G G29C],0.0665
18,GGCCGGCAUGGUCGCAGCCUCCUCGCUGUCGCCGGCUGGGCAACAUUCCGAGGGGACCGUCCCCUCGGUAAUGGCGAAUGGGACCCA [C14G G29U],0.0396
19,GGCCGGCAUGGUCGCAGCCUCCUCGCUGGCCCCGGCUGGGCAACAUUCCGAGGGGACCGUCCCCUCGGUAAUGGCGAAUGGGACCCA [C14G G31C],0.145
20,GGCCGGCAUGGUCGCAGCCUCCUCGCUGGCGCCAGCUGGGCAACAUUCCGAGGGGACCGUCCCCUCGGUAAUGGCGAAUGGGACCCA [C14G G34A],0
